Results: publication PMC12392933, “The SCARECROW‐LIKE transcription factor from Populus davidiana × P. bolleana simultaneously improved drought tolerance and plant growth through acetylation‐dependent mechanisms”

T1: PdbSCL1 (Populus davidiana x P. bolleana …, UniProt A0AAJ6V7V0 1-473)
T1 sequence: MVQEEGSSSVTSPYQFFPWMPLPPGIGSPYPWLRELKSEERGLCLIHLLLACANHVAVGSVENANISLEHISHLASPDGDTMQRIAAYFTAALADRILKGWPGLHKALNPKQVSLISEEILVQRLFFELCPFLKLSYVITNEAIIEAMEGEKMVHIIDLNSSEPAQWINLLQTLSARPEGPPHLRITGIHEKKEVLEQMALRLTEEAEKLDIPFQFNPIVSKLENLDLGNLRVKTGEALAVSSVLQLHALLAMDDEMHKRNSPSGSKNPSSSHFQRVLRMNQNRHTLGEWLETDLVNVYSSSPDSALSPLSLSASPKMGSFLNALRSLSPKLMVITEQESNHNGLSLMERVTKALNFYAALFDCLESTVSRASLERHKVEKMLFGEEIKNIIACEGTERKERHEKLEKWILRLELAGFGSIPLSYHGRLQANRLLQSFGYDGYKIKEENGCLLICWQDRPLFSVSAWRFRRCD

B1: PCF probe (3x TGGGCC) (dsDNA)
DNA 1: TGGGCCTGGGCCTGGGCC
DNA 2: GGCCCAGGCCCAGGCCCA
B2: NFY probe (3x CCAAT) (dsDNA)
DNA 1: CCAATCCAATCCAATC
DNA 2: GATTGGATTGGATTGG
B3: NFY mutant competitor (CCAAT to TTTTT) (dsDNA)
DNA 1: TTTTTTTTTTTTTTTC
DNA 2: GAAAAAAAAAAAAAAA
B4: ABRE probe (3x CACGTG) (dsDNA)
DNA 1: CACGTGCACGTGCACGTG
DNA 2: CACGTGCACGTGCACGTG

Legend:
PdbSCL1 [1] = target: T1, PdbSCL1; assay: EMSA; Chemiluminescent EMSA kit (Beyotime), PAGE; buffer, salt, pH and temperature not stated; details: protein: recombinant; tags: MBP (pMALc5X); label: 3' biotin; blunt
PdbSCL1 [2] = target: T1, PdbSCL1; assay: competition; EMSA, unlabelled mutant competitor; Chemiluminescent EMSA kit (Beyotime), PAGE; buffer, salt, pH and temperature not stated; details: protein: recombinant; tags: MBP (pMALc5X); label: unlabelled; blunt

| Binder | binding result (PdbSCL1 [1]) | binding result (PdbSCL1 [2]) |
| --- | --- | --- |
| B1 | binds | – |
| B2 | binds | – |
| B3 | – | no binding |
| B4 | binds | – |
